# Results as given in patent US11912782B2, “BCMA monoclonal antibody-drug conjugate” (MedImmune, LLC, priority 2017, dated 2024).
# Key:
# MM.1R xenograft = assay: MM.1R subcutaneous xenograft model; assay type: in vivo, mouse; settings: single intravenous dose 1 mg/kg, observed for 109 days post tumor implantation
# Description: (§1) Subcutaneous xenograft mouse models of multiple myeloma and plasma cell leukemia were generated by implanting BCMA-expressing multiple myeloma or plasma cell leukemia cell lines (i.e., NCI-H929, JJN-3, MM.1S, and MM.1R) into female CB-17 SCID (C.B-17/IcrHsd-Prkdc-scid) or athymic nude (Foxn1^nu) mice using MATRIGEL™ (BD Biosciences, San Jose, Calif.). Once tumors reached approximately 180 mm^3 (NCI-H929 cells), 190 mm^3 (JJN3 cells), 160 mm^3 (MM.1S cells), or 175 mm^3 (MM.1R cells), mice were randomized based on tumor size and placed into dosing groups and treated with BCMA-targeting ADCs as described below.
# Mice were treated with either a single intravenous dose of 15B2GL-SG3249 at 1 mg/kg or dosed intravenously with J6M0-mc-MMAF weekly at a dose of 3 mg/kg for 4 weeks. Control mice were left untreated.
# NCI-H929 xenograft = assay: NCI-H929 subcutaneous xenograft model (Example 5); assay type: in vivo, mouse; settings: single intravenous dose 0.3 mg/kg, observed for 99 days post tumor implantation
# Description: as §1
# Mice were treated with either a single intravenous dose of the ADCs 15B2GL-SG3249, I09-5G3249, L15-SG3249 at 0.3 mg/kg or dosed intravenously with J6M0-mc-MMAF weekly at a dose of 0.3 mg/kg for 2 weeks. Control mice were left untreated.
# MM.1S cells = assay: Cell killing in the presence of soluble BCMA (conditioned media from Ad293 cells expressing human BCMA); assay type: cell-based; settings: MM.1S and NCI-H929, sBCMA at levels up to 720 ng/mL
# Protocol: (§2) Killing of multiple myeloma and plasma cell leukemia cell lines by antibody-drug conjugates comprising 15B2GL, or affinity-optimized clones thereof, conjugated to SG3249 was evaluated in vitro using the protocol recommended in the CELLTITER-GLO® kit (Promega, Madison, Wis.). Killing of multiple myeloma and plasma cell leukemia cell lines by the free warhead SG3199 also was evaluated using the protocol recommended in the CELLTITER-GLO® kit (Promega, Madison, Wis.). Briefly, 5×10^3 cells in 80 μL RPMI+10% FBS were added to the inner wells of white-walled 96-well plates (Corning® Costar®, Fisher Scientific, Waltham, Mass.). The following BCMA-expressing cell lines were tested: NCI-H929, EJM, MM.1R. JJN3, OPM-2, MM.1S, U266.B1, and L363. BMCA-negative cell lines Raji and Jurkat also were tested. The antibody-drug conjugates were diluted to a 5× stock (2.5 μg/mL) in RPMI+10% FBS. Treatments were then serially diluted 1:3 in RPMI+10% FBS. 20 μL of this series was added to the cells in duplicate, resulting in a 12-point dose curve of antibody-drug conjugate ranging from 0.5 μg/mL at the highest concentration to 3×10^−6 vg/mL at the lowest. Isotype antibody-drug conjugate (IgG1-SG3249 and IgG1-mc-MMAF) and media-only controls also were included. Plates were incubated at 37° C., 5% CO2 for 96 hours. At the end of the incubation period, 100 μL of the Substrate Solution (Promega, Madison Wis.) was added to each well. Luminescence was measured using an EnVision™ Multilabel plate reader (Perkin Elmer, Waltham, Mass.). Data were analyzed and graphed using GraphPad Prism™ software (GraphPad Software, Inc., La Jolla, Calif.), and the half-maximal inhibitory concentration (IC50) was determined.
# The ability of the 15B2GL-SG3249 ADC to kill multiple myeloma cells in vitro in the presence of soluble BCMA (sBCMA) as compared to the I09-5G3249 ADC was evaluated in MM.1S cells using the protocol described above, except that tested cell lines also were treated with BCMA-containing conditioned media collected from Ad293 cells expressing human BCMA (FIGS. 3A and 3B). 15B2GL-SG3249 ADC cell killing in the presence of sBCMA also was compared to ADCs comprising the anti-BCMA antibody J6M0, which is described in U.S. Pat. No. 9,273,141.
# JJN3 xenograft = assay: JJN3 subcutaneous xenograft model; assay type: in vivo, mouse; settings: single intravenous dose 1 mg/kg, observed for 104 days post tumor implantation
# Description: as §1
# Mice were treated with either a single intravenous dose of 15B2GL-SG3249, 109-SG3249, and L15-SG3249 ADCs at 1 mg/kg, or dosed intravenously with J6M0-mc-MMAF ADC weekly at a dose of 1 mg/kg for 3 weeks. Control mice were left untreated.
# MM.1S xenograft = assay: MM.1S subcutaneous xenograft model (Example 5); assay type: in vivo, mouse; settings: single intravenous dose 1 mg/kg, observed for 99 days post tumor implantation
# Description: as §1
# Mice were treated with either a single intravenous dose of 15B2GL-SG3249, 109-SG3249, L15-SG3249 ADCs at 1 mg/kg or dosed intravenously with J6M0-mc-MMAF twice weekly at a dose of 1 mg/kg for 4 weeks. Control mice were left untreated.
# Jurkat = assay: In vitro cytotoxicity, CELLTITER-GLO, 96 hours (BCMA-negative line); assay type: cell-based; settings: T-lymphocyte, BCMA receptor number 0
# Protocol: as §2, with “20 μL of this series was added to the cells in duplicate, resulting in a 12-point dose curve of antibody-drug conjugate ranging from 0.5 μg/mL at the highest concentration to 3×10^−6 vg/mL at the lowest. Isotype antibody-drug conjugate (IgG1-SG3249 and IgG1-mc-MMAF) and media-only controls also were included. Plates were incubated at 37° C., 5% CO2 for 96 hours. At the end of the incubation period, 100 μL of the Substrate Solution (Promega, Madison Wis.) was added to each well.” left out
# Raji = assay: as above; assay type: cell-based; settings: Burkitt's lymphoma, BCMA receptor number 0
# Protocol: as §2, with “20 μL of this series was added to the cells in duplicate, resulting in a 12-point dose curve of antibody-drug conjugate ranging from 0.5 μg/mL at the highest concentration to 3×10^−6 vg/mL at the lowest. Isotype antibody-drug conjugate (IgG1-SG3249 and IgG1-mc-MMAF) and media-only controls also were included. Plates were incubated at 37° C., 5% CO2 for 96 hours. At the end of the incubation period, 100 μL of the Substrate Solution (Promega, Madison Wis.) was added to each well.” left out
# [1] = tested on: MM stem cells (clonogenic cells in MM bone marrow biopsies); assay: Clonogenic (colony formation) assay on MM patient bone marrow samples; assay type: cell-based, human
# Protocol: In particular, cells were counted using a ViCELL™ counter (Beckmann-Coulter Life Sciences, Indianapolis, Ind.) and resuspended in IMDM+2% FBS at 10-fold higher density than required for plating. METHOCULT™ H4434 Classic (StemCell Technologies, Inc., Vancouver, BC, Canada) was mixed with 2000 cells per mL for MM263, MM284, and MM276, and 4000 cells per mL for MM277 following the manufacturer's instructions. 25-400 ng per mL of the test ADCs 15B2GL-SG3249 and J6M0-mc-MMAF was then added to appropriate tubes. A control IgG1-SG3249 antibody was added at only the high dose of 400 ng per mL. All tubes were vortexed thoroughly to mix and then allowed to sit undisturbed, allowing air bubbles to rise to the top. Once the bubbles had risen, 400 μL was removed with a 16-guage blunt end needle and carefully plated into one well of a 24-well ultralow attachment plate (VWR, Radnor, Pa.). Each treatment was plated in duplicate in the inner wells of the plate. PBS was added to the outer wells and the plate was incubated at 37° C. for 7-10 days. Colonies were counted by eye with documentation of colony formation by scanning plates on a Celigo® Image Cytometer (Nexcelom Biosciences, Lawrence, Mass.).
molecule,measurement,setting,value
15B2GL-SG3249: ADC: 15B2GL monoclonal antibody site-specifically conjugated to the PBD payload SG3249 (conjugate) VH: EVQLVESGGGLVKPGGSLRLSCAASGFTFRSYSMNWVRQAPGKGLEWVSSISGSSNYIYYADSVKGRFTISRDNAKNSLYLQMNSLRAEDTAVYYCARGGNYYVEYFQYWGQGTLVTVSS VL: EIVLTQSPGTLSLSPGERATLSCRASQYISSNYLAWYQQKPGQAPRLLIYGASNRATGIPDRFSGSGSGTDFTLTISRLEPEDFAVYYCQQYGSSPITFGQGTKLEIK,tumor regrowth,MM.1R xenograft,no evidence of tumor regrowth
same,tumor regrowth,NCI-H929 xenograft,no evidence of tumor regrowth
same,tumor cells killed (average),MM.1S cells,95%
same,tumor regrowth,JJN3 xenograft,no evidence of tumor regrowth
same,tumor regrowth,MM.1S xenograft,no evidence of tumor regrowth
same,IC50,Jurkat,>0.5 µg/mL
same,IC50,Raji,>0.5 µg/mL
same,colonies killed / reduction in colony formation,"[1]; patient sample MM263, 400 ng/mL",100%
same,colonies killed / reduction in colony formation,"[1]; patient sample MM276, 400 ng/mL",87.5%
same,colonies killed / reduction in colony formation,"[1]; patient sample MM277, 400 ng/mL",91%
same,colonies killed / reduction in colony formation,"[1]; patient sample MM284, 400 ng/mL",100%
